The source of these data is publication PMC9872604, “Targeting Multidrug-Recalcitrant Pseudomonas aeruginosa Biofilms: Combined-Enzyme Treatment Enhances Antibiotic Efficacy” (Antimicrobial Agents and Chemotherapy, 2023).

Substrate in data set [1]: CCCCCCCCCC(=O)CC(=O)N[C@H]1CCOC1=O
As to the kind of experiment: purified protein. Type of data set: biochemical, Ochrobactrum sp. T63. The conditions noted are these: 50 mM sodium phosphate pH 6.8, 37 °C, 10 min, 5% methanol substrate.

Substrate in data set [2]: CCCC(=O)N[C@H]1CCOC1=O
Briefly: purified protein. Type of data set: biochemical, Ochrobactrum sp. T63. The settings on record: 50 mM sodium phosphate pH 6.8, 37 °C, 10 min, 5% methanol substrate.

B1: AidH (Ochrobactrum sp. T63) (protein)
chain: MTINYHELETSHGRIAVRESEGEGAPLLMIHGNSSSGAIFAPQLEGEIGKKWRVIAPDLPGHGKSTDAIDPDRSYSMEGYADAMTEVMQQLGIADAVVFGWSLGGHIGIEMIARYPEMRGLMITGTPPVAREEVGQGFKSGPDMALAGQEIFSERDVESYARSTCGEPFEASLLDIVARTDGRARRIMFEKFGSGTGGNQRDIVAEAQLPIAVVNGRDEPFVELDFVSKVKFGNLWEGKTHVIDNAGHAPFREAPAEFDAYLARFIRDCTQ
notes: full aidH gene in pET28a(+) (BamHI/HindIII), His-tagged, expressed in E. coli BL21(DE3), Ni-NTA and size exclusion purified
On to B1, for which, in the data set “purified protein [1]”, the Km was found to be 240 ± 30 µM and the kcat was 29.4 ± 1.7 s⁻¹. Also, in “purified protein [2]”, the Km worked out at 250 ± 30 µM and the turnover number (kcat) was found to be 39.8 ± 1.3 s⁻¹.

Broadly, the Km is the concentration of substrate that gives half-maximal velocity. Broadly, the kcat is the number of substrate molecules converted per active site and unit of time at saturation.
